The values that follow come from publication doi:10.1101/2025.06.02.656870.

This assay addresses chicken IgY (chicken). Description: BLI; Octet SAX biosensors, as described previously (ref. 10); kinetic 1:1 model, global fits over multiple Fab concentrations. On the technique in general: In BLI a coated tip is dipped into the sample, and binding shifts an interference pattern.

Sequence of chicken IgY (chicken) (main, as listed by the source): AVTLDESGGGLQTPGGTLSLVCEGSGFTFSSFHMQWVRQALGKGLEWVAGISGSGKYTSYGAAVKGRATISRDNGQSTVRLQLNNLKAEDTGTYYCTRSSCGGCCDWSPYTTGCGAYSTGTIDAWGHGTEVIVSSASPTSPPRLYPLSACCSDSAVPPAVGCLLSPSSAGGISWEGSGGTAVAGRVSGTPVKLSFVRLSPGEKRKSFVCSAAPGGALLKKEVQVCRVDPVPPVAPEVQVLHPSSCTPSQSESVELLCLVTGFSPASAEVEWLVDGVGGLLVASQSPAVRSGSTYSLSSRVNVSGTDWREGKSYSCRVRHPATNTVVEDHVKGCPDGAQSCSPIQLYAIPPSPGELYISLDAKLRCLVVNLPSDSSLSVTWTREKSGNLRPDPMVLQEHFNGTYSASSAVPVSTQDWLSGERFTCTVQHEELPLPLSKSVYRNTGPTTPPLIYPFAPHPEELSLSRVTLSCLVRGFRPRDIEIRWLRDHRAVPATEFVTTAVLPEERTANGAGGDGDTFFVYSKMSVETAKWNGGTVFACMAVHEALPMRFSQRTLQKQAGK

B1: 2.1^hi Fab (D28HA, K49HR, S64HG, A40LG, Y42LF, A52LS, Q105LH, N108LY) (Fab, V domains shown)
VH: EVQLQESGPSLVKPSQTLSLTCSVTGASITSGYWNWIRKFPGNRLEYMGYISYSGGTYYNPSLKSRISITRDTSKNQYYLQLNSVTTEDTATYYCARDFDVWGAGTTVTVSS
VL: DIVMTQSQKFMSTSVGDRVSVTCKASQNVGTNVGWFQQKPGQSPKSLIYSASYRYSGVPDRFTGSGSGTDFTLTISNVQSEDLAEYFCHQYYSYPLTFGSGTKLEIK
The term Kd denotes the constant that tells how readily two partners part at equilibrium. Read a high Kd as a looser complex. Molecule B1 came in with a Kd of 0.062 nM.
